Results on one protein are retold here after publication doi:10.1101/2024.07.30.605912 (bioRxiv, 2024).

Usually stoichiometry N stands for the number of molecules, sites or subunits per partner or assembly.

This series deals with the molecule itself. The experiment in a line: cryo-EM structure.

B1: Salmonella typhimurium ArnC (undecaprenyl-phosphate 4-deoxy-4-formamido-L-arabinose transferase) (enzyme)
chain: MFDAAPIKKVSVVIPVYNEQESLPELIRRTTTACESLGKAWEILLIDDGSSDSSAELMVKASQEADSHIISILLNRNYGQHAAIMAGFSHVSGDLIITLDADLQNPPEEIPRLVAKADEGFDVVGTVRQNRQDSLFRKSASKIINLLIQRTTGKAMGDYGCMLRAYRRPIIDTMLRCHERSTFIPILANIFARRATEIPVHHAEREFGDSKYSFMRLINLMYDLVTCLTTTPLRLLSLLGSVIAIGGFSLSVLLIVLRLALGPQWAAEGVFMLFAVLFTFIGAQFIGMGLLGEYIGRIYNDVRARPRYFVQQVIYPESTPFTEESHQ
For B1, the “stoichiometry N” value came out at 4.
